Measured values taken from publication doi:10.1101/2023.06.13.544862 (bioRxiv, 2023).
Ends that are not written are not given here. Me3 = trimethyl-lysine; Me2 = dimethyl-lysine

B1: 6xHis-tagged NOP16 (natural protein, human, UniProt Q9Y3C1 1-178, looked up)
chain: MPKAKGKTRRQKFGYSVNRKRLNRNARRKAAPRIECSHIRHAWDHAKSVRQNLAEMGLAVDPNRAVPLRKRKVKAMEVDIEERPKELVRKPYVLNDLEAEASLPEKKGNTLSRDLIDYVRYMVENHGEDYKAMARDEKNYYQDTPKQIRSKINVYKRFYPAEWQDFLDSLQKRKMEVE

Legend:
[1] = target: JMJD3 JmjC domain labelled for microscale thermophoresis (UniProt O15054 1339-1502, labeled with Protein Labeling kit RED-NHS); experiment: MST
[2] = target: GST-tagged EED, wild type (human, UniProt O75530 1-441); experiment: pull-down
Chain of GST-tagged EED, wild type (O75530 whole entry): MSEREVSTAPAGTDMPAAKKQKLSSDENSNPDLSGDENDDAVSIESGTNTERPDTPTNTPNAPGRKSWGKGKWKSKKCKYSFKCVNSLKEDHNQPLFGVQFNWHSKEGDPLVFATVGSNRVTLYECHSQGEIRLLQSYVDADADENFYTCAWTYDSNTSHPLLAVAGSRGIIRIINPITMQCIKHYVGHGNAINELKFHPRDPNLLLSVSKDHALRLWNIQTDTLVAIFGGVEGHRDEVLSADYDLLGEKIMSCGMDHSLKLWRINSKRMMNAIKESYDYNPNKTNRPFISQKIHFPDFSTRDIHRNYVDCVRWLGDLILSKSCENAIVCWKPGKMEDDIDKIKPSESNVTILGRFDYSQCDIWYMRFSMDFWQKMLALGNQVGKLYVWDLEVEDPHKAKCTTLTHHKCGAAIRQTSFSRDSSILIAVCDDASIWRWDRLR

Chain of JMJD3 JmjC domain labelled for microscale thermophoresis (O15054 1339-1502): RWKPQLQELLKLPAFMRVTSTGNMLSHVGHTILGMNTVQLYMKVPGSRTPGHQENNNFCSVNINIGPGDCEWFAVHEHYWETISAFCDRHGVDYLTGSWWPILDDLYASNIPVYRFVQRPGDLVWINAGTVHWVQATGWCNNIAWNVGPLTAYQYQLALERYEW

Binder | Kd [1] [µM] | binding result [2]
NARRK(Me3)AAP (peptide, UniProt Q9Y3C1 25-32, looked up, also: biotin) [NOP16 aa 25-32 peptide, tri-methylated K29] | 32.1 ± 27.4 | 
NARRKAAP (peptide, UniProt Q9Y3C1 25-32, looked up, also: biotin) [NOP16 aa 25-32 peptide, unmethylated K29] | 103 ± 65.2 | 
NARRK(Me)AAP (peptide, UniProt Q9Y3C1 25-32, looked up, also: biotin) [NOP16 aa 25-32 peptide, mono-methylated K29] | 347 ± 224 | 
NARRK(Me2)AAP (peptide, UniProt Q9Y3C1 25-32, looked up, also: biotin) [NOP16 aa 25-32 peptide, di-methylated K29] | 306 ± 101 | 
B1 |  | binds
